Test results reported in the supplement of paper PMC10724198.
± gives the standard deviation of the averaged measurements.

What follows are sequences tested on Saccharomyces cerevisiae (assay: protein stability index of tFT-peptide fusion (C-terminal peptide) (PSI (0-1 scale)); higher = more stable (slower turnover)). Conditions: genetic background: das1 deletion; temperature: 30 C.
Procedure: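 MPS profiling in S. cerevisiae of the yeast C-terminome library: the last 12 aa of each annotated ORF are fused to the C-terminus of a sfGFP-mCherry timer, after a GGGS linker. Cells are FACS-sorted into 8 mCherry/sfGFP bins and deep-sequenced. PSI runs from 0 (unstable) to 1 (stable); wild type and das1Δ backgrounds, two technical replicates each.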
NQAIQYANEFQQ [HOG1 C-terminal 12 aa] was tested, and the protein stability index was 0.701 ± 0.022.
Work on NQRKANDNKRRR [RRP17 C-terminal 12 aa] yielded a protein stability index of 0.7188 ± 0.001.
For NQRSFNDKSKRD [CAX4 C-terminal 12 aa], the protein stability index was 0.692 ± 0.009.
With NSFDGLLVYLSN [CBF2 C-terminal 12 aa] the protein stability index was 0.6572 ± 0.0033.
NSIVKQFKEIFK [AIM41 C-terminal 12 aa] was tested, and the protein stability index was 0.709 ± 0.028.
For NSSSNESIQVVV [SFK1 C-terminal 12 aa], the protein stability index was 0.706 ± 0.043.
Work on NTLRISTVGQEF [PYK2 C-terminal 12 aa] yielded a protein stability index of 0.7106 ± 0.0029.
NTSGQKPNEYNY [APA1 C-terminal 12 aa] showed a protein stability index of 0.7049 ± 0.0049.
In the case of NVGVIRPLLDLQ [YGR069W C-terminal 12 aa], the protein stability index is reported as 0.743 ± 0.026.
NVTKLAKERVLF [CPA1 C-terminal 12 aa] gave a protein stability index of 0.6847 ± 0.0048.
For “NVYRLTLMIFRL [YMR013W-A C-terminal 12 aa]”, the protein stability index was 0.428 ± 0.016.
Work on “NWVRYSSIYYQL [YDR194W-A C-terminal 12 aa]” yielded a protein stability index of 0.695 ± 0.013.
NYPELPRLTFST [RFU1 C-terminal 12 aa] showed a protein stability index of 0.704 ± 0.018.
NYRLEEQDVLTW [LYS14 C-terminal 12 aa] showed a protein stability index of 0.721 ± 0.037.
Sequence PAAISGTVPSIF [DIN7 C-terminal 12 aa] has a protein stability index of 0.715 ± 0.021.
In the case of PAKFGIQFQYST [MDM10 C-terminal 12 aa], the protein stability index is reported as 0.697 ± 0.021.
With PCTASITSLISF [YDR269C C-terminal 12 aa] the protein stability index was 0.709 ± 0.012.
With PDEISFLQQFTS [KAP104 C-terminal 12 aa] the protein stability index was 0.721 ± 0.0076.
PEAEGPTVEEVD [SSA1 C-terminal 12 aa] showed a protein stability index of 0.703 ± 0.02.
For PELSSTVSHNRA [WSC3 C-terminal 12 aa], the protein stability index was 0.693 ± 0.035.
For PEMTRRGRGPRR [RPA49 C-terminal 12 aa], the protein stability index was 0.714 ± 0.022.
For PFPLLRLSAPFK [OST3 C-terminal 12 aa], the protein stability index was 0.72 ± 0.0091.
For PFPLPSTERVIF [ADY2 C-terminal 12 aa], the protein stability index was 0.723 ± 0.02.
For “PHYAGCLEDIIF [YER066C-A C-terminal 12 aa]”, the protein stability index was 0.719 ± 0.046.
For PIKEVLLENWDQ [PUS5 C-terminal 12 aa], the protein stability index was 0.715 ± 0.017.
In the case of PIRTPDAKKPKI [BUR2 C-terminal 12 aa], the protein stability index is reported as 0.715 ± 0.013.
PIVHYISDRRTV [ARC15 C-terminal 12 aa] was tested, and the protein stability index was 0.682 ± 0.013.
With PKETLHRSDHQG [YPR039W C-terminal 12 aa] the protein stability index was 0.6938 ± 0.0051.
Sequence PKFSKPDPLKRD [SAC1 C-terminal 12 aa] has a protein stability index of 0.72 ± 0.01.
PLGEVDLNSFKN [YHP1 C-terminal 12 aa] gave a protein stability index of 0.691 ± 0.019.
In the case of PLLELVMELRDR [MOB1 C-terminal 12 aa], the protein stability index is reported as 0.726 ± 0.051.
Sequence PLRLLIRPVGEL [YOR248W C-terminal 12 aa] has a protein stability index of 0.679 ± 0.008.
For PLWNQRRDDLFH [NIT2 C-terminal 12 aa], the protein stability index was 0.74 ± 0.042.
For PMALFGIFAVAL [AFB1 C-terminal 12 aa], the protein stability index was 0.5769 ± 0.0038.
PNVSYIEEKLNQ [MAS1 C-terminal 12 aa] showed a protein stability index of 0.702 ± 0.015.
PPNTLWHYNFRK [MRPL28 C-terminal 12 aa] was tested, and the protein stability index was 0.751 ± 0.024.
PQGFEIIELLNF [ROM1 C-terminal 12 aa] gave a protein stability index of 0.717 ± 0.044.
Work on PRSDDEDDEDSE [FAP7 C-terminal 12 aa] yielded a protein stability index of 0.683 ± 0.026.
“PSSDHAKSVMGE [YML101C-A C-terminal 12 aa]” showed a protein stability index of 0.707 ± 0.018.
For PSTLIITTLLFK [YJR023C C-terminal 12 aa], the protein stability index was 0.618 ± 0.051.
With PSYCSLRWSHRT [YLR169W C-terminal 12 aa] the protein stability index was 0.7331 ± 0.006.
Work on PTPKALTNEKTH [MGR1 C-terminal 12 aa] yielded a protein stability index of 0.687 ± 0.017.
For PTYDNNRHYGND [YFL032W C-terminal 12 aa], the protein stability index was 0.671 ± 0.0083.
For PVHLEAIDLIDC [HSP150 C-terminal 12 aa], the protein stability index was 0.7087 ± 0.0034.
PVRMYALKPMPN [TAE1 C-terminal 12 aa] was tested, and the protein stability index was 0.6931 ± 0.0035.
Sequence PWFAPIREQIEK [CKA1 C-terminal 12 aa] has a protein stability index of 0.722 ± 0.011.
With QAKEVFDKMQKE [FMP23 C-terminal 12 aa] the protein stability index was 0.7133 ± 0.0026.
Work on QARKSKSVSFYA [RPT5 C-terminal 12 aa] yielded a protein stability index of 0.693 ± 0.016.
QDMMSGFLGGSK [GET4 C-terminal 12 aa] was tested, and the protein stability index was 0.69072 ± 1.9e-05.
Sequence QDNSEVVDLTSD [NFI1 C-terminal 12 aa] has a protein stability index of 0.694 ± 0.012.
QGMLQSFLDREL [YOL057W C-terminal 12 aa] was tested, and the protein stability index was 0.721 ± 0.023.
With QHSRGSPNNSNN [YKU80 C-terminal 12 aa] the protein stability index was 0.701 ± 0.0071.
With QIAGRYVVDTSK [ADH2 C-terminal 12 aa] the protein stability index was 0.6869 ± 0.0057.
With QINDLEIYRKRL [SNT309 C-terminal 12 aa] the protein stability index was 0.6847 ± 0.006.
In the case of QKLGIIGKNDLK [PSD1 C-terminal 12 aa], the protein stability index is reported as 0.685 ± 0.029.
QKYQVYKNFETL [UTR4 C-terminal 12 aa] was tested, and the protein stability index was 0.7 ± 0.015.
QLHLVLTLRGGN [RUB1 C-terminal 12 aa] showed a protein stability index of 0.683 ± 0.011.
Sequence QLSRNEESLMKK [COS5 C-terminal 12 aa] has a protein stability index of 0.7 ± 0.015.
Sequence QMTRNVNNNDFS [YAH1 C-terminal 12 aa] has a protein stability index of 0.711 ± 0.028.
With QMVRDEGFEKNP [GPM3 C-terminal 12 aa] the protein stability index was 0.68 ± 0.038.
Work on QPDDKTKGILDR [ERV41 C-terminal 12 aa] yielded a protein stability index of 0.7292 ± 0.0051.
In the case of QQEQDKKKKSNH [PRE6 C-terminal 12 aa], the protein stability index is reported as 0.709 ± 0.013.
Work on QRDFLLFYNAIM [CDC36 C-terminal 12 aa] yielded a protein stability index of 0.687 ± 0.012.
QSFETVFAGQKP [MET17 C-terminal 12 aa] gave a protein stability index of 0.7008 ± 0.0036.
With QTDNTSATNQLL [YSP2 C-terminal 12 aa] the protein stability index was 0.7 ± 0.0084.
In the case of QTINTKPLYIKN [YGR290W C-terminal 12 aa], the protein stability index is reported as 0.686 ± 0.02.
Sequence QVGKSQAQAVTL [ANY1 C-terminal 12 aa] has a protein stability index of 0.674 ± 0.0092.
QVPEEDFPVVNY [DNL4 C-terminal 12 aa] was tested, and the protein stability index was 0.697 ± 0.009.
RAEVAALAAENK [PFK1 C-terminal 12 aa] showed a protein stability index of 0.6903 ± 0.0045.
Sequence RAHITKQKKKGY [SDA1 C-terminal 12 aa] has a protein stability index of 0.7317 ± 0.0043.
In the case of RARLIRKKKTIN [YER085C C-terminal 12 aa], the protein stability index is reported as 0.751 ± 0.022.
RAVTPTGKKGRN [YOR296W C-terminal 12 aa] was tested, and the protein stability index was 0.675 ± 0.035.
For “RCNVYIIRCIHH [YOL164W-A C-terminal 12 aa]”, the protein stability index was 0.5183 ± 0.00055.
RCWVQAVFDVPQ [ABP140 C-terminal 12 aa] was tested, and the protein stability index was 0.725 ± 0.011.
Work on RDHDLKDCGDIF [OSH2 C-terminal 12 aa] yielded a protein stability index of 0.7104 ± 0.0011.
With RELFGVGTPQKL [TEA1 C-terminal 12 aa] the protein stability index was 0.7173 ± 0.0037.
Work on RELTDLFGYKLG [SLM4 C-terminal 12 aa] yielded a protein stability index of 0.708 ± 0.015.
In the case of RESINEAKLRHT [BDH2 C-terminal 12 aa], the protein stability index is reported as 0.676 ± 0.02.
REWASNTVKKEK [EMC5 C-terminal 12 aa] gave a protein stability index of 0.698 ± 0.013.
With RFRVVLGDSDDE [PSH1 C-terminal 12 aa] the protein stability index was 0.672 ± 0.043.
RGRGALVDSDDE [ELF1 C-terminal 12 aa] showed a protein stability index of 0.713 ± 0.026.
In the case of RGSCDNWKKRQN [YBL044W C-terminal 12 aa], the protein stability index is reported as 0.726 ± 0.021.
